# Data published in paper PMC7567689, “High-level expression of aryl-alcohol oxidase 2 from Pleurotus eryngii in Pichia pastoris for production of fragrances and bioactive precursors” (Applied Microbiology and Biotechnology, 2020).
# What was measured:
# [1] = target: T1, PeAAO2 (Pleurotus eryngii, UniProt D3YBH4); assay: direct UV assay of cuminaldehyde formation at […] nm, Michaelis-Menten fit; format: biochemical; settings: 100 mM sodium phosphate pH 6.0, 25 °C; O2 as co-substrate; glycosylated enzyme; read-out: PeAAO2 from P. eryngii expressed in P. pastoris^a
# T1 construct: no tag mentioned
# [2] = target: T1, PeAAO2; assay: direct UV assay of veratraldehyde formation at […] nm, Michaelis-Menten fit; format: biochemical; settings: 100 mM sodium phosphate pH 6.0, 25 °C; O2 as co-substrate; glycosylated enzyme; read-out: PeAAO2 from P. eryngii expressed in P. pastoris^a
# [3] = test system: T2, OCc1ccc2c(c1)OCO2; assay: purified protein; format: biochemical, Pleurotus eryngii; settings: 100 mM sodium phosphate pH 6.0, 25 °C, O2 as co-substrate, glycosylated enzyme
# T2 construct: no tag mentioned
# [4] = test system: T3, OC/C=C/c1ccccc1; assay: purified protein; format: biochemical, Pleurotus eryngii; settings: 100 mM sodium phosphate pH 6.0, 25 °C, O2 as co-substrate, glycosylated enzyme, substrate in DMSO
# T3 construct: no tag mentioned
# [5] = test system: T4, C/C=C/C=C/CO; assay: purified protein; format: biochemical, Pleurotus eryngii; settings: 100 mM sodium phosphate pH 6.0, 25 °C, O2 as co-substrate, glycosylated enzyme
# T4 construct: no tag mentioned
# [6] = test system: T5, OCc1ccccc1; assay: purified protein; format: biochemical, Pleurotus eryngii; settings: 100 mM sodium phosphate pH 6.0, 25 °C, O2 as co-substrate, glycosylated enzyme
# T5 construct: no tag mentioned
# T1 sequence (D3YBH4 28-593 limits assumed): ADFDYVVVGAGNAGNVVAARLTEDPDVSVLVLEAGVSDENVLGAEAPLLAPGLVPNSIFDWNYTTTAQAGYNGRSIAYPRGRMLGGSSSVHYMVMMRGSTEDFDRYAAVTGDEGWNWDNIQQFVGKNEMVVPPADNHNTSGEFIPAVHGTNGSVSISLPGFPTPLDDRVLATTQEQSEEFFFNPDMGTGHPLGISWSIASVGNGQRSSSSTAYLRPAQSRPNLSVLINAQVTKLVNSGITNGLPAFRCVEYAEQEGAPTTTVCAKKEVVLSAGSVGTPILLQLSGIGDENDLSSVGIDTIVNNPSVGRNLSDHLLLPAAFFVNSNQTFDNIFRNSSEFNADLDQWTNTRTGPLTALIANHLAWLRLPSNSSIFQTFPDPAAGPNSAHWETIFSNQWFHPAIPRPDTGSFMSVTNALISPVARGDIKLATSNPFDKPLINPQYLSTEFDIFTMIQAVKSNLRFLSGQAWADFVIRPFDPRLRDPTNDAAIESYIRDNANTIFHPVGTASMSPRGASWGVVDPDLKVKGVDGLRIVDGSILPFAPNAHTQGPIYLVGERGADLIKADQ
compound,measurement,setting,value
CC(C)c1ccc(CO)cc1 [Cumic alcohol],Km,[1],1910 ± 42.4 µM
COc1ccc(CO)cc1OC [Veratryl alcohol],Km,[2],447 ± 7.5 µM
PeAAO2 (Pleurotus eryngii),Km,[3],59.1 ± 3.0 µM
same,kcat,[3],35.5 ± 0.02 s⁻¹
same,kcat/Km,[3],600000 M⁻¹ s⁻¹
same,Km,[4],2740 ± 103 µM
same,kcat,[4],125.5 ± 0.1 s⁻¹
same,kcat/Km,[4],45800 M⁻¹ s⁻¹
same,Km,[5],143.6 ± 11.5 µM
same,kcat,[5],68.8 ± 0.05 s⁻¹
same,kcat/Km,[5],479000 M⁻¹ s⁻¹
same,Km,[6],599.6 ± 18.7 µM
same,kcat,[6],12.8 ± 0.01 s⁻¹
same,kcat/Km,[6],21400 M⁻¹ s⁻¹
